# Experimental data reported in patent US20220241369A1, “COMPOSITIONS AND METHODS OF MODULATING INFLAMMATION” (La Jolla Institute for Allergy and Immunology, priority 2018, published 2022).
# Columns and labels:
# [1] = test system: NIH/3T3 murine fibroblasts and primary intestinal fibroblasts; experiment: HRF secretion into culture supernatant, western blot, fibroblasts; format: cell-based, mouse; details: stimulated overnight, 20 or 100 ng/ml
# Experimental: (§1) FIGS. 4A-4C show HRF is secreted by various cells. CMT-93 murine intestinal epithelial cells (FIG. 4A) and NIH/3T3 murine fibroblasts (FIG. 4B) and Raw264.7 murine macrophages (FIG. 4C) were stimulated overnight with low (20 ng/ml) and high (100 ng/mL) concentrations of various cytokines. HRF secreted into culture supernatants was detected by western blotting. Med and US denote medium only and supernatant from unstimulated cells, respectively. −DTT and +DTT indicate SDS gels were run under non-reducing and reducing conditions, respectively. Gel portions of containing the 23 kDa HRF monomer are shown except that a larger portion of the non-reducing gel is shown in panel C. Arrow indicates the position of HRF dimer, which disappeared under reducing conditions.
# The following cell lines were cultured in DMEM plus 10% FCS except for U-937 cells which were cultured in RPMI1640 plus 10% FCS: CMT-93 mouse and Caco-2 (with 20% FCS) human intestinal epithelial cell lines; NIH/3T3 mouse fibroblast line; Raw 264.7 mouse and U-937 human macrophage lines; BEAS-2B human bronchial epithelial cell line; 293T human embryonic kidney cell line (obtained from ATCC, Manassas, Va., except for NIH/3T3, which was provided by S. A. Aaronson, NIH). Fibroblast-like stromal cells were cultured from small intestines of BALB/c mice in DMEM/10% FBS. […]
# [2] = test system: BEAS-2B human bronchial epithelial cells; experiment: HRF secretion, western blot, BEAS-2B; format: cell-based; details: combination of HDM and cytokine, 24 h
# Text: As lung epithelial cells are exposed to the environment, HRF secretion was studied using BEAS-2B human bronchial epithelial cells. A small amount of HRF was secreted constitutively, but house dust mite allergens induced the secretion of high-molecular-weight HRF species (HMW-HRFs). Various cytokines including epithelial derived cytokines as well as Th2 cytokines and proinflammatory cytokines further enhanced HDM-induced secretion of HMW-HRFs.
# Cultured cells were scraped and treated with adenosine and ATP, which should be abundantly present in inflammatory or injured tissues. These conditions induced secretion of HRF monomer, dimer and HMW-HRFs like stimulation with HDM plus cytokines.
# Culture supernatants were analyzed by SDS-PAGE under nonreducing (−DTT) and reducing (+DTT) conditions, followed by western blotting for HRF probing. HDM-induced HRF secretion was enhanced not only by Th2 cytokines (IL-4, IL-5, and IL-13), but also by epithelial derived cytokines (IL-25, IL-33, and TSLP) and proinflammatory cytokines (IL-1beta, IL-6 and TNF). med, medium alone; US, unstimulated; HDM, house dust mite; CR, cockroach; RW, ragweed; Af, Aspergillus fumigatus. Arrowhead, HRF monomer.
# [3] = test system: CMT-93 murine intestinal epithelial cells; experiment: HRF secretion into culture supernatant, western blot, CMT-93; format: cell-based, mouse; details: stimulated overnight, 20 or 100 ng/ml
# Experimental: as §1
# (§2) The following cell lines were cultured in DMEM plus 10% FCS except for U-937 cells which were cultured in RPMI1640 plus 10% FCS: CMT-93 mouse and Caco-2 (with 20% FCS) human intestinal epithelial cell lines; NIH/3T3 mouse fibroblast line; Raw 264.7 mouse and U-937 human macrophage lines; BEAS-2B human bronchial epithelial cell line; 293T human embryonic kidney cell line (obtained from ATCC, Manassas, Va., except for NIH/3T3, which was provided by S. A. Aaronson, NIH). Fibroblast-like stromal cells were cultured from small intestines of BALB/c mice in DMEM/10% FBS. CD4^+ T and B cells were purified from mouse spleens using BD IMag™ Mouse CD4 and B cells enrichment set-DM. Low-density bone-marrow cells were cultured in the presence of 100 ng/ml of stem cell factor (PeproTech) and 100 ng/ml of FLT-3 ligand (R&D Systems) for 4 days, and with 10 ng/mL of IL-5 (R&D Systems) thereafter for 10 days to obtain bone marrow-derived eosinophils (44). Bone marrow cells were cultured in the presence of 20 ng/ml of GM-CSF for 6 days and adherent cells were collected as bone marrow-derived macrophages. Non-adherent cells were further cultured with 5 ng/ml GM-CSF and the non-adherent cells were collected as bone marrow-derived dendritic cells. […]
# [4] = test system: Raw264.7 murine macrophages; experiment: HRF secretion into culture supernatant, western blot, macrophages; format: cell-based, mouse; details: stimulated overnight, 20 or 100 ng/ml
# Experimental: as §1, §2
# [5] = test system: c-Kit+ mucosal mast cells of the small intestine; experiment: Ex vivo mast cell activation test (MCAT); format: cell-based, mouse; details: 15 min at 37° C.
# Experimental: FIGS. 2A-2C show mucosal mast cells can be activated ex vivo by antigen. Cells were released with EDTA from small intestines of non-sensitized/OVA challenged (Cont) or OVA-sensitized/OVA-challenged (OVA) mice, and mononuclear cells were selected. The cells were incubated for 15 min at 37° C. with OVA or anti-IgE antibody, and activation of Kit^+ mast cells was measured by flow cytometry (FIG. 2A, FIG. 2B). **, ***: p<0.01, p<0.001 by Student's t-test. (n=2; a representative of 2 independent experiments) (FIG. 2C) Mucosal cells derived from OVA-sensitized/OVA-challenged mice were stimulated with PBS (n=4), OVA (10 ng/ml, n=4) or HRF dimer (100 μg/ml, n=2) in the presence or absence of HRF-2CA (300 μg/ml).
# FIGS. 11A-11C show HRF dimer, but not monomer can activate mast cells. (FIG. 11A) Purified dimeric and monomeric HRF expressed in E. coli. Recombinant HRF-[…] was purified first by Histrap HP and then Sephacryl S-200 HR16/60. Two peaks were observed by Sephacryl size fractionation. The first (Fr1) and second (Fr3) peaks contained dimer and monomer, respectively, as shown by SDS-PAGE. Fr1 and Fr3 were used for mast cell stimulation. (FIG. 11B) Cells were released with 10 mM EDTA from small intestines of OVA-sensitized/OVA-challenged mice, and mononuclear cells were selected. The cells were incubated for 15 min at 37° C. with mHRF monomer or dimer (100 μg/ml), or PBS, and Kit^+ mast cell activation (LAMP-1^+) was measured by flow cytometry (n=3). (FIG. 11C) Control experiments indicate an excellent specificity of the assay for HRF multimers. HRF-2CA (2CA) was used as a monomer control (n=2 for each concentration). Note that total concentrations of the 1:9 mixture of dimer:monomer gave almost the same luminescence values as did ten-fold less concentrations of dimer.
# Twenty-four hours after the last OVA challenge, mice were sacrificed and small intestines (0.5-15 cm from stomach) were collected. The intestinal tissues were opened longitudinally and washed with PBS. Then, the tissues were incubated with 10 mM EDTA-PBS for 30 min at 37° C. After incubation, the tissues were transferred to 30 ml PBS in 50 ml tubes and vigorously shaken. After washed, the cells were resuspended in 40% Percoll solution and slowly loaded on the top of 75% Percoll solution. The cells were then centrifuged (2000 rpm, 20 min) and lymphocytes were collected. The cells were once centrifuged and resuspended in Tyrode's buffer. Abs (Biotin-anti-CD4 mAb (clone RM4-5), Biotin-anti-CD8 mAb (clone 53-6.7), Biotin-anti-B220 mAb (clone RA3-6B2), Biotin-anti-CD326 mAb (clone G8.8), PE-anti-CD117 (clone 2B8), AlexaFluor647-anti-LAMP-1 mAb (clone 1D4B)) (Biolegend) were added and cells were then stimulated with OVA, anti-IgE (clone RME-1, BioLegend) and recombinant dimeric murine HRF for 15 min at 37° C. After activation, cells were washed and incubated with FITC-streptavidin (Catalog #405202, Biolegend) for 30 min at 4° C. LAMP-1 expression was detected using FACS Calibur. Data were analyzed using FlowJo software.
# [6] = test system: mouse bone marrow-derived mast cells (BMMCs); experiment: IL-13 production of IgE-sensitized BMMCs stimulated with TNP3-BSA and mHRF dimer; format: cell-based; details: IL-13 ELISA
# Experimental: (§3) FIGS. 33A-33B show HRF dimers enhance IgE/antigen-induced activation of mast cells and basophils. […] IL-13 in culture supernatants was quantified by ELISA. […] Then, HDM allergen (Dermatophagoides farinae at 10 ng/ml) was added to the cells together with FITC-anti-CD63 and APC-anti-CCR3 for 15 min. Expression of CD63 (activation marker) and CCR3 (basophil marker) was analyzed by flow cytometry.
# [7] = test system: basophils; experiment: Basophil activation (CD63) in blood of an HDM-sensitized asthmatic; format: cell-based, human; details: 10 μg/ml, 30 min, then HDM allergen 10 ng/ml for 15 min
# Experimental: as §3
# [8] = test system: OVA-induced allergic diarrhea; experiment: OIT desensitization model, hourly increasing amounts of OVA for 3 days; format: in vivo, mouse
# Experimental: (§4) In a classical tolerance model, five daily oral administrations of 1 mg OVA from day −11 to day −7 were performed before i.p. OVA/alum-sensitization on days 0 and 7 and followed by ig. OVA (30 mg) gavages on days 14, 21, 28 and 35. In another OIT model, mice were i.d. sensitized with OVA (750 μg) on days 0, 13 and 27 and followed by 9 oral OVA (60 mg) challenges from day 44 to day 60 to induce diarrhea in all mice. Then mice were i.g. treated with hourly increasing amounts of OVA on day 100 (0.1, 0.2, 0.5 mg), on day 101 (1, 2, 5 mg) and on day 102 (10, 20, 60 mg).
# Finally, HRF-reactive IgE and HRF-reactive IgG were monitored in another desensitization model, which mimicked the human OIT more faithfully. OVA-sensitized mice were first rendered allergic by OVA challenges and then received hourly increasing amounts of OVA for 3 consecutive days (OIT) after a resting period (FIG. 7D). […] Levels of HRF-reactive IgG and OVA-specific IgG were not changed by OIT (FIG. 7E). In non-sensitized mice, HRF-reactive IgE and HRF-reactive IgG levels were not changed by OIT and OVA-specific IgE and IgG levels were extremely low irrespective of OIT treatment (data not shown).
# [9] = test system: OVA-induced allergic diarrhea; experiment: Classical tolerance model, oral OVA before sensitization; format: in vivo, mouse
# Experimental: as §4
# Applicant then tested the possibility provoked by the above human data that the level of HRF-reactive IgE is kept low in a desensitized state, using two murine models. In a classic tolerance model (30), five daily oral administrations of 1 mg OVA from day −11 to day −7 (OIT) prevented the OVA-induced development of allergic diarrhea in OVA-sensitized mice (FIG. 7B). By contrast, without oral pretreatment, all OVA-sensitized mice developed allergic diarrhea.
# [10] = cells from allergic (OVA-sensitized/OVA-challenged) mice
molecule,measurement,setting,value
IL-1β,HRF secretion,[1],enhanced
same,HDM-induced HRF secretion,[2],enhanced
same,HRF secretion,[3],strongly induced
same,secretion of HRF monomer,[4],increased
"HRF dimer: recombinant disulfide-linked dimer of mouse histamine releasing factor (protein, UniProt P63028 1-172, looked up, disulfide-linked dimer, recombinant disulfide-linked dimer of mouse histamine releasing factor) Translationally-controlled …: MIIYRDLISHDELFSDIYKIREIADGLCLEVEGKMVSRTEGAIDDSLIGGNASAEGPEGEGTESTVVTGVDIVMNHHLQETSFTKEAYKKYIKDYMKSLKGKLEEQKPERVKPFMTGAAEQIKHILANFNNYQFFIGENMNPDGMVALLDYREDGVTPFMIFFKDGLEMEKC",activation (LAMP-1+) of mucosal mast cells by the substance,[5]; [10],can activate
same,activation (LAMP-1+) of mucosal mast cells by the substance,"[5]; cells from allergic (OVA-sensitized/OVA-challenged) mice, listed as dimeric HRF",activated
same,IgE/antigen-induced activation of mast cells,[6],enhance
hHRF dimer: human HRF dimer (protein) MIIYRDLISHDEMFSDIYKIREIADGLCLEVEGKMVSRTEGNIDDSLIGGNASAEGPEGEGTESTVITGVDIVMNHHLQETSFTKEAYKKYIKDYMKSIKGKLEEQRPERVKPFMTGAAEQIKHILANFKNYQFFIGENMNPDGMVALLDYREDGVTPYMIFFKDGLEMEKC,IgE/antigen-induced activation of basophils (CD63),[7],enhance
"OVA: food allergen of the murine model, also given orally as OIT (protein, UniProt P01012 2-386, looked up) Ovalbumin: GSIGAASMEFCFDVFKELKVHHANENIFYCPIAIMSALAMVYLGAKDSTRTQINKVVRFDKLPGFGDSIEAQCGTSVNVHSSLRDILNQITKPNDVYSFSLASRLYAEERYPILPEYLQCVKELYRGGLEPINFQTAADQARELINSWVESQTNGIIRNVLQPSSVDSQTAMVLVNAIVFKGLWEKAFKDEDTQAMPFRVTEQESKPVQMMYQIGLFRVASMASEKMKILELPFASGTMSMLVLLPDEVSGLEQLESIINFEKLTEWTSSNVMEERKIKVYLPRMKMEEKYNLTSVLMAMGITDVFSSSANLSGISSAESLKISQAVHAAHAEINEAGREVVGSAEAGVDAASVSEEFRADHPFLFCIKHIATNAVLFFGRCVSP",levels of HRF-reactive IgE,[8]; before vs after OIT,lowered
same,levels of HRF-reactive IgG and OVA-specific IgG,[8]; before vs after OIT,not changed
same,levels of OVA-specific IgE,[8]; before vs after OIT,did not change
same,OVA-sensitized/OVA-challenged mice desensitized to the final gavage dose of 60 mg,[8]; hourly increasing amounts for 3 consecutive days,80%
same,activation (LAMP-1+) of mucosal mast cells by the substance,[5]; [10],further activated
same,activation (LAMP-1+) of mucosal mast cells by the substance,[5]; cells from non-sensitized mice,few mast cells were activated
same,OVA-induced development of allergic diarrhea,[9]; five daily oral administrations of 1 mg from day -11 to day -7,prevented
same,HRF-reactive IgE levels,[9]; tolerance-induced vs non-tolerant and non-sensitized mice,significantly reduced
